B1: Phosphatidylinositol 3,4,5-trisphosphate 5-phosphatase 2 (Homo sapiens), O15357-1 (parent)
chain: MASACGAPGPGGALGSQAPSWYHRDLSRAAAEELLARAGRDGSFLVRDSESVAGAFALCVLYQKHVHTYRILPDGEDFLAVQTSQGVPVRRFQTLGELIGLYAQPNQGLVCALLLPVEGEREPDPPDDRDASDGEDEKPPLPPRSGSTSISAPTGPSSPLPAPETPTAPAAESAPNGLSTVSHDYLKGSYGLDLEAVRGGASHLPHLTRTLATSCRRLHSEVDKVLSGLEILSKVFDQQSSPMVTRLLQQQNLPQTGEQELESLVLKLSVLKDFLSGIQKKALKALQDMSSTAPPAPQPSTRKAKTIPVQAFEVKLDVTLGDLTKIGKSQKFTLSVDVEGGRLVLLRRQRDSQEDWTTFTHDRIRQLIKSQRVQNKLGVVFEKEKDRTQRKDFIFVSARKREAFCQLLQLMKNKHSKQDEPDMISVFIGTWNMGSVPPPKNVTSWFTSKGLGKTLDEVTVTIPHDIYVFGTQENSVGDREWLDLLRGGLKELTDLDYRPIAMQSLWNIKVAVLVKPEHENRISHVSTSSVKTGIANTLGNKGAVGVSFMFNGTSFGFVNCHLTSGNEKTARRNQNYLDILRLLSLGDRQLNAFDISLRFTHLFWFGDLNYRLDMDIQEILNYISRKEFEPLLRVDQLNLEREKHKVFLRFSEEEISFPPTYRYERGSRDTYAWHKQKPTGVRTNVPSWCDRILWKSYPETHIICNSYGCTDDIVTSDHSPVFGTFEVGVTSQFISKKGLSKTSDQAYIEFESIEAIVKTASRTKFFIEFYSTCLEEYKKSFENDAQSSDNINFLKVQWSSRQLPTLKPILADIEYLQDQHLLLTVKSMDGYESYGECVVALKSMIGSTAQQFLTFLSHRGEETGNIRGSMKVRVPTERLGTRERLYEWISIDKDEAGAKSKAPSVSRGSQEPRSGSRKPAFTEASCPLSRLFEEPEKPPPTGRPPAPPRAAPREEPLTPRLKPEGAPEPEGVAAPPPKNSFNNPAYYVLEGVPHQLLPPEPPSPARAPVPSATKNKVAITVPAPQLGHHRHPRVGEGSSSDEESGGTLPPPDFPPPPLPDSAIFLPPSLDPLPGPVVRGRGGAEARGPPPPKAHPRPPLPPGPSPASTFLGEVASGDDRSCSVLQMAKTLSEVDYAPAGPARSALLPGPLELQPPRGLPSDYGRPLSFPPPRIRESIQEDLAEEAPCLQGGRASGLGEAGMSAWLRAIGLERYEEGLVHNGWDDLEFLSDITEEDLEEAGVQDPAHKRLLLDTLQLSK

Variants of: B1
Conditions: with epha2_human EPHA2, P29317
Sequence of epha2_human EPHA2, P29317 (P29317 whole entry): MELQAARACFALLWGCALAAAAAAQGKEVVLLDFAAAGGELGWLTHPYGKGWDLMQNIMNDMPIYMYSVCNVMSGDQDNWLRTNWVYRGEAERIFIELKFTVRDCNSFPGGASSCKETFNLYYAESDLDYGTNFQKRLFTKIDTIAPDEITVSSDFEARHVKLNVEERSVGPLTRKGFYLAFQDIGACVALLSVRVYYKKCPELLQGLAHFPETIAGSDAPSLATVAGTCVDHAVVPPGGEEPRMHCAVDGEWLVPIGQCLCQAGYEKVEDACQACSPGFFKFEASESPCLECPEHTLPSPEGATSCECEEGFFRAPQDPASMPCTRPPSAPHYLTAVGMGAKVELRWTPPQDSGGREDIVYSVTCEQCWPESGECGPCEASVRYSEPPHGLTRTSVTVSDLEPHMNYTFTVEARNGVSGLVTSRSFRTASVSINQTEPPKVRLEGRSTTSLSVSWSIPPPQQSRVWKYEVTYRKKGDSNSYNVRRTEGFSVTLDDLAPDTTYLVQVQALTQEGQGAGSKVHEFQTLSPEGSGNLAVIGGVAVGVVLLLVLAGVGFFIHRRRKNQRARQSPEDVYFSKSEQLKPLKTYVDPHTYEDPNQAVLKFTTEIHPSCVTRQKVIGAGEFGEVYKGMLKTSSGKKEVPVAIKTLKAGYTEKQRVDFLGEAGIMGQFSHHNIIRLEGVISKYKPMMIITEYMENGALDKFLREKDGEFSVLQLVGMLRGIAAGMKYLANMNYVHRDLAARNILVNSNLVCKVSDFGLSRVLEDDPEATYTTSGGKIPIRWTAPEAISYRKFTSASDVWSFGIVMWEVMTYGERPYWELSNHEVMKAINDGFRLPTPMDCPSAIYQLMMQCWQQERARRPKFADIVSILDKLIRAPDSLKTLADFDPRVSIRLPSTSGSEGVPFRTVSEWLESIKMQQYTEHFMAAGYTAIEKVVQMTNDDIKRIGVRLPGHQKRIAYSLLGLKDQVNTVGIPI

Variant | effect of a mutation on the interaction
D1223A;D1224A | disrupting interaction

Variants of: B1
Conditions: with epha2_human EPHA2, P29317
Remark: another data set of the same source

Variant | effect of a mutation on the interaction
H1219S | increasing interaction
